According to patent publication US6956104B2, “Protein Rim2” (JCR Pharmaceuticals Co., Ltd., priority 1999, dated 2005):
Changes are numbered by the printed parent chain. Names and notes keep the numbering of the source. Values belong to the molecule of their own block, whether it stands above or below them.

Legend:
PC12 cells = assay: GH secretion from transfected PC12 cells; format: cell-based; conditions: for 8-Br-cAMP-induced, Ca2+-dependent GH secretion: 8-Br-cAMP 1 mM, GH released relative to total cellular GH, n=9; for forskolin-induced GH secretion relative to wild-type cAMP-GEFII: high K+, 15-min incubation, increment above basal, wild-type = 100%
Procedure: GH secretion from transfected PC12 cells was performed as described in K. Korake et al., J. Biol. Chem., 272:29407(1997). Expression plasmid vectors (pSR α) for wild-type cAMP-GEFII, mutant cAMP-GEFII (T810A), and the double mutant cAMP-GEFII (G114E, G422D) were prepared. As a control, β-galactosidase (β-gal) was used. […] were transfected with GH expression vector (pXGH5: Nichols Institute) plus each vector described above, using LipofectAMINE.
PC12 cell were incubated with a low […] (4.7 mM) or high K^+ (60 mM) solution, in the presence or absence of forskolin (50 μM) or 8-bromoadenosine 3′,5′ cyclic monophosphate (8-Br-cAMP)(1 mM). Forskolin or 8-Br-cAMP was added 10 min before the incubation with a low or high K^+ solution. In some experiments, the PKA inhibitor H-89 (10 μM) was added 10 min before forskolin stimulation.

[1] = target: T1, constitutively active Rab3A (Q81L) (Bos taurus, UniProt P11023, Q81L); assay: Yeast two-hybrid assay with Rab3A; format: binding, bovine; conditions: transactivation of liquid β-galactosidase activity
T1 construct: the full-length cDNA's for wild type mouse Rab3A and constitutively active bovine Rab3A (Q81L) were cloned into the yeast bait vector pBTM116; expressed in transfected cells
T1 sequence (P11023 1-220 Q81L): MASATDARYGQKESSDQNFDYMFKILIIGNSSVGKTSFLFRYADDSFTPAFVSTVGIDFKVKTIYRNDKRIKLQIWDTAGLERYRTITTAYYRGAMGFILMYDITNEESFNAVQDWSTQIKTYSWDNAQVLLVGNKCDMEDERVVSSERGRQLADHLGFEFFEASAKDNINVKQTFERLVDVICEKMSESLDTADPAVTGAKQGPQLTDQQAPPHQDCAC
Excerpt: According to the method described in “Identification of Interacting molecules by YTH Method”, the full-length cDNA's for wild type mouse Rab3A and constitutively active bovine Rab3A (Q81L) were cloned into the yeast bait vector pBTM116.
The nucleotide sequence of zinc finger domains of bovine rabphilin3 (amino acid residues 1-283), rat Rim1 (amino acid residues 1-204) and mouse Rim2 (amino acid residues 1-345 were cloned into the prey vector pVP16. Liquid culture assay of […] activities was performed according to the manufacturer's instructions (Clontech). The activity values were obtained from 3 independent clones for each transformant and normalized by cell numbers determined as OD600.

Rab3A = assay: In vitro binding of Rab3A to immobilized GST-Rim; conditions: immobilized on glutathione beads; anti-Rab3A immunoblotting
Procedure: Lipid-modified Rab3A was purified from the membrane fraction of Sf9 cells expressing Rab3A. Rat Rim1 (amino acid residues 1-204) and mouse Rim2 (amino acid residues 1-345) were expressed as GST fusion proteins and purified. The GTP γS- or GDP βS-bound form of Rab3A was incubated for 90 min at 4° C. with GST-Rim1, or GST-Rim2 (30 pmol for each) immobilized on glutathione beads in reaction buffer. Rab3A was detected by immunoblotting with anti-Rab3A antibody.

cAMP-GEFII = target: T2, cAMP-GEFII (Mus musculus, UniProt Q9EQZ6); assay: GST pull-down, interaction of Rim with cAMP-GEFII; format: binding; conditions: lysates of COS-1 or MIN6 cells, or mouse brain homogenate; immunoblotting
T2 construct: A full-length cAMP-GEFII cDNA was subcloned into plasmid pFLAG-CMV-2 (Sigma); expressed in transfected cells; host or cells: COS-1 cells
T2 sequence (Q9EQZ6 1-1011): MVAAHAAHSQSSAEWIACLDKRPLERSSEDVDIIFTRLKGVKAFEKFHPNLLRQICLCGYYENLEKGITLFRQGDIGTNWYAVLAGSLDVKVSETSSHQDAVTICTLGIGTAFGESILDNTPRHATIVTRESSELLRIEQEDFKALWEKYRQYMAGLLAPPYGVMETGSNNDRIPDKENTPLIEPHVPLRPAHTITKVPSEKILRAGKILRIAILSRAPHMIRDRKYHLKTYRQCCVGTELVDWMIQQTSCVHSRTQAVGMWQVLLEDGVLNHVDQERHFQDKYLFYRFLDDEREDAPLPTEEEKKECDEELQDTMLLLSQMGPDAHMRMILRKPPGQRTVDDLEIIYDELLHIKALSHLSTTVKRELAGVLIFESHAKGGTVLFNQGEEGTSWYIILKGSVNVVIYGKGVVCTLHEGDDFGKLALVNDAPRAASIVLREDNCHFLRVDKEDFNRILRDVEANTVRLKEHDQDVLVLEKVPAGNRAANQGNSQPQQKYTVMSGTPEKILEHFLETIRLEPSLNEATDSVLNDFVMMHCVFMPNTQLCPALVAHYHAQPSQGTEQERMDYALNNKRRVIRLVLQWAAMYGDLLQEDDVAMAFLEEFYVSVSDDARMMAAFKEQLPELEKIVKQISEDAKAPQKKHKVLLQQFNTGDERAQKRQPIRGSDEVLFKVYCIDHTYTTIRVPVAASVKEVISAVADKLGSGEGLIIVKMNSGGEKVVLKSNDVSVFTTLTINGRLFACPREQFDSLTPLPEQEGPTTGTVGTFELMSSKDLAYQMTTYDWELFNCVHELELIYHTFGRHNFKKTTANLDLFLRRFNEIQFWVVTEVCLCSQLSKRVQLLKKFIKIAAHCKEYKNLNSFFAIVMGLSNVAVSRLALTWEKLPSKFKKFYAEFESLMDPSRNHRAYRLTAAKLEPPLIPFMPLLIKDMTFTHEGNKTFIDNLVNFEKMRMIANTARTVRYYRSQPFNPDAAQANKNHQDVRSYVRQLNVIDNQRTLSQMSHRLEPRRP
Procedure: Rim2 (amino acid residues 538-863) was expressed as a GST fusion protein and purified according to the method described in “Preparation and Test of GST fusion Protein”. A full-length cAMP-GEFII cDNA was subcloned into plasmid pFLAG-CMV-2 (Sigma). The resultant construct was transfected into COS-1 cells, using LipofectAMINE (Life Technologies). The lysate of the COS-1 cells was incubated with GST-Rim2 immobilized on glutathione beads for 2 hrs at 4° C. The complex thus obtained was washed with distilled water, separated by SDS-PAGE, and immunoblotted with an anti-FLAG M2 antibody (Sigma).
The lysate of MIN6 cells was incubated with GST-Rim2 and interaction between cAMP-GEFII and Rim2 was evaluated according to the method described in “Study on Interaction between Rim2 and cAMP-GEFII: I”, using a IgG antibody raised against the C-terminus (amino acid residues 1001-1011, […] (SEQ ID NO:5) of mouse cAMP-GEFII.
According to the method described in “Preparation and Test of GST fusion Protein”, Rim1 partial sequence (530-806) was expressed as a GST fusion protein and then purified. The brain homogenate from three mice was incubated with GST-Rim1 immobilized on glutathione beads overnight at 4° C. cAMP-GEFII was detected as described in “Study on Interaction between Rim2 and cAMP-GEFII: II”.

Molecule: O=S(=O)(NCCNC/C=C/c1ccc(Br)cc1)c1cccc2cnccc12 [H-89, reference compound]
effect on high K+-induced GH secretion (PC12 cells; H-89 10 μM, cAMP-GEFII-transfected and β-galactosidase-transfected PC12 cells): reduced

Molecule: Nc1ncnc2c1nc(Br)n2[C@@H]1O[C@@H]2COP(=O)(O)O[C@H]2[C@H]1O [8-Br-cAMP, 8-bromoadenosine 3′,5′ cyclic monophosphate, reference compound]
8-Br-cAMP-induced, Ca2+-dependent GH secretion (PC12 cells; cAMP-GEFII-transfectant): 34.9±1.3%
8-Br-cAMP-induced, Ca2+-dependent GH secretion (PC12 cells; control (β-galactosidase-transfectant)): 25.1±1.8%

interaction with active Rab3A (Q81L) [1]: interacts
binding to GTPγS- or GDP-bound form of Rab3A (Rab3A): binds to the GTP-activated form
interaction with cAMP-GEFII protein (cAMP-GEFII): bound
B1: Rim1: Rab3-interacting molecule, putative effector of the small G protein Rab3; rat, used as GST fusion (protein)
chain: MSSAVGPRGPRPPTVPPPMQELPDLSHLTEEERNIIMAVMDRQKEEEEKEEAMLKCVVRDMAKPAACKTPRNAESQPHQPPLNIFRCVCVPRKPSSEEGGPERDWRLHQQFESYKEQVRKIGEEARRYQGEHKDDAPTCGICHKTKFADGCGHLCSYCRTKFCARCGGRVSLRSNNEDKVVMWVCNLCRKQQEILTKSGAWFFG
modifications: left off: large carriers
notes: rat, used as GST fusion

B2: cAMP-GEFII: cAMP sensor protein, GDP/GTP exchange factor II; wild type transfected into PC12 cells (protein)
chain: T2 sequence (Q9EQZ6 1-1011)
modifications: left off: large carriers
notes: cAMP sensor protein, GDP/GTP exchange factor II; wild type transfected into PC12 cells
forskolin-induced, Ca2+-dependent GH secretion with PKA inhibitor H-89, versus control cells (PC12 cells; H-89 10 μM, forskolin 50 μM): significantly higher
effect on Ca2+-dependent (60 mM K+) secretion of cotransfected GH (PC12 cells; compared to the control transfectant): did not alter
effect on forskolin-induced, Ca2+-dependent GH secretion (PC12 cells; forskolin 50 μM): significantly enhanced

B3: cAMP-GEFII (T810A): mutant cAMP-GEFII in which a potential PKA phosphorylation site is disrupted (protein, UniProt Q9EQZ6 1-1011, looked up, variant T810A)
Rap guanine nucleotide …: T2 sequence (Q9EQZ6 1-1011) with T810A
forskolin-induced GH secretion relative to wild-type cAMP-GEFII (PC12 cells; forskolin 50 μM): not affected

B4: cAMP-GEFII (G114E, G422D): double mutant cAMP-GEFII in which both cAMP binding sites are disrupted (protein, UniProt Q9EQZ6 1-1011, looked up, variant G114E G422D)
Rap guanine nucleotide …: T2 sequence (Q9EQZ6 1-1011) with G114E, G422D
forskolin-induced GH secretion relative to wild-type cAMP-GEFII (PC12 cells; forskolin 50 μM): ~40%
